Key:
[1] = tested on: tumors of patients (pancreatic cancer, non small cell lung cancer, small cell lung cancer, nasopharyngeal carcinoma); details: human, in vivo, iv
Procedure: In a clinical trial in the real world, a patient with pancreatic cancer (one), a patient with non small cell lung cancer (one), a patient with small cell lung cancer (one) and a patient with nasopharyngeal carcinoma (one) were used as subjects. An intravenous injection dose (1.8-2.2 MBq [0.05-0.06 mCi]/kg) of the ^68Ga-FAPI-RGD (V-25) was calculated based on a body weight of each subject. After intravenous injection was performed for 3 h, data was obtained by a hybrid PET/CT scanner (Discovery MI, GE Health care, Milwaukee, WI, USA). A maximum standard uptake value (SUVmax) was automatically calculated by using a region of interest (ROI) drawn on a transaxial image. The SUVmax value of the ^68Ga-FAPI-RGD (V-25) targeting two targets is higher than that of ^68Ga-FAPI-46 targeting the single target, FAP, in different types of tumors, and the SUVmax value is increased by about 30-50%, proving that the design of targeting two targets can improve the number and utilization efficiency of effective receptors in tumors, thereby improving the uptake in tumors.

integrin αvβ3 = target: T1, integrin αvβ3 (Homo sapiens, UniProt P05106+P06756); test: Cell binding experiment in U87MG tumor cells
T1 construct: endogenous in cells; host or cells: U87MG tumor cells
T1 sequence (P06756 31-889 limits assumed): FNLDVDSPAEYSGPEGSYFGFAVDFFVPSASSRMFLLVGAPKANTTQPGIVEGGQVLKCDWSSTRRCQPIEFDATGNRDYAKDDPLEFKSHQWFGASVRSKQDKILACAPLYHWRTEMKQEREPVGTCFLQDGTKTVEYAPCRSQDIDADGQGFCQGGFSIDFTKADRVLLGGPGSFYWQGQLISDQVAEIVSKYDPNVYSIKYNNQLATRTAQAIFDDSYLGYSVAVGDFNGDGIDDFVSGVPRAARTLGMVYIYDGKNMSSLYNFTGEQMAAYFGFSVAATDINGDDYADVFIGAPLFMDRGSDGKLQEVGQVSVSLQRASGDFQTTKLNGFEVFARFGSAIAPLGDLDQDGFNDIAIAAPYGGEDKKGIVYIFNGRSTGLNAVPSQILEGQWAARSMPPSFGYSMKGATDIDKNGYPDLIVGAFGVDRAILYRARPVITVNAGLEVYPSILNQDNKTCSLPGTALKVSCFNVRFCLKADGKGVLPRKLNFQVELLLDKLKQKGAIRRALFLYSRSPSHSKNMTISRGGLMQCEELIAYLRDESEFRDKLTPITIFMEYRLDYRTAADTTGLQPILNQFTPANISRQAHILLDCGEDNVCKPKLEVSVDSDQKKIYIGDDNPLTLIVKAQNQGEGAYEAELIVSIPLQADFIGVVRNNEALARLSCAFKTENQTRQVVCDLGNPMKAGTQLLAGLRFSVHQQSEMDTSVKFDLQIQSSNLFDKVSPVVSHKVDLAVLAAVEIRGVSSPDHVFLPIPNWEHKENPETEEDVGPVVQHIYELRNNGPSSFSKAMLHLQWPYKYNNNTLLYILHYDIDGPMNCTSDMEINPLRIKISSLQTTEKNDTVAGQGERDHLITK
T1 sequence (P06756 891-1048 partner limits assumed): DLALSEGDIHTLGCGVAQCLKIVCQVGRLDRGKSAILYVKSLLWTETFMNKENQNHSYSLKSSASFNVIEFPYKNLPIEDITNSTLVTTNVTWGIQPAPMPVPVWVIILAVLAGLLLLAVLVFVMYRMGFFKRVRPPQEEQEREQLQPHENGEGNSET
T1 sequence (P05106 27-788): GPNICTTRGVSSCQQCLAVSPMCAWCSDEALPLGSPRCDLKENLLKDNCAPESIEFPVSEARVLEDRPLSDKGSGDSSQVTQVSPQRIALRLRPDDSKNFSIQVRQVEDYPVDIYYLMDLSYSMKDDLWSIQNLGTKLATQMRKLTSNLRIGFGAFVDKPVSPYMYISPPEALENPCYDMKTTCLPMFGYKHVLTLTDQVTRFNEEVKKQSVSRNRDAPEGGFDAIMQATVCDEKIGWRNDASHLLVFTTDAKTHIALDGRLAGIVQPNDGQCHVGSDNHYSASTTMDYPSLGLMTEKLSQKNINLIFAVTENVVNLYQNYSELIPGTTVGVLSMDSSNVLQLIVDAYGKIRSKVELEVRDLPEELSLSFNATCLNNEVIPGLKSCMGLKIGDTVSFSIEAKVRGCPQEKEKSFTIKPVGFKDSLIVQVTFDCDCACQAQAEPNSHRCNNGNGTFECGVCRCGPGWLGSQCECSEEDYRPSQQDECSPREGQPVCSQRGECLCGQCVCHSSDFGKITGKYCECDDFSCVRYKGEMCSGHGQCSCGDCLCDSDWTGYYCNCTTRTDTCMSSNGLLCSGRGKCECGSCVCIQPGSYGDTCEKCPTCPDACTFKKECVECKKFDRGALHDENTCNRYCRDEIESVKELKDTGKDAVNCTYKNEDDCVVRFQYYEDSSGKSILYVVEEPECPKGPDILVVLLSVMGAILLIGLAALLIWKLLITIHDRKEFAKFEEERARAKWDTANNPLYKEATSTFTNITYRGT
Procedure: A cell binding experiment was carried out in HT1080-FAP and U87MG tumor cells, and test results are shown in Part B and Part C of FIG. 52, respectively.

[2] = tested on: HT1080-FAP tumor-bearing mice; details: mouse, in vivo
Procedure: Then, under anaesthesia with isoflurane, the ^68Ga-FAPI-RGD (V-25) group was subjected to MicroPET imaging after administration for 0-240 min, respectively, and the other groups were subjected to MicroPET imaging after administration for 0-120 min, respectively. In FIG. 53, Part A, Part C and Part E show maximum-density MicroPET projection images of the HT1080-FAP tumor-bearing mice (n=3) at different time points after the intravenous injection of the three groups of mice, respectively, and Part B, Part D and Part F show uptake in various organs or tissues (such as blood, liver, kidney, tumors and muscles) of the three groups of mice at different time points after the injection, respectively, where three uptake amounts in each group correspond to, from left to right, 0.5 h, 1 h and 2 h after the injection, respectively. […] A specific binding property of the ^68Ga-FAPI-RGD (V-25) to integrin αvβ3 and FAP in vivo is proven by a blocking experiment. The ^68Ga-FAPI-RGD (V-25) and C(RGDfK) or FAPI-02 were co-injected into HT1080-FAP tumor-bearing mice, and MicroPET imaging results and organ uptake results are shown in FIG. 54. […]

IC50 (integrin αvβ3): 18.9 nM
SMILES: N#C[C@@H]1CCCN1C(=O)CNC(=O)c1ccnc2ccc(OCCCN3CCN(C(=O)CCOCCOCCNC(=O)[C@H](CCC(=O)NCCOCCOCCC(=O)NCCCC[C@@H]4NC(=O)[C@@H](Cc5ccccc5)NC(=O)[C@H](CC(=O)O)NC(=O)CNC(=O)[C@H](CCCNC(=N)N)NC4=O)NC(=O)CN4CCN(CC(=O)O)CCN(CC(=O)O)CC4)CC3)cc12 [^68Ga-FAPI-RGD (V-25), metal not drawn]
SUVmax value compared with 68Ga-FAPI-46 [1]: higher | increase of SUVmax value over 68Ga-FAPI-46 [1]: 30-50% | tumor uptake compared with monomers [2]: higher

— patent publication US20250135043A1, “DUAL-TARGETING COMPOUND FOR FIBROBLAST ACTIVATION PROTEIN (FAP) AND INTEGRIN avB3, PREPARATION METHOD THEREFOR AND USE THEREOF” (YANTAI LANNACHENG BIOTECHNOLOGY CO., LTD., priority 2022, published 2025)
